Results published in a protein production outcome set (Wang et al. 2014).

Test: label from the status in PepcDB records

Sequence | protein production
MKKFKFTLFSLLVIIFSGLLIQRFSGYFYTTPVGIVKSVKIIDSEQLLTVKLVNNTKKTVVVKVKFNGNESTNPVFNKNNQILLDNSTKKWEFISLKRDGYTFILVVSFVSLVLGIAGKKGFFSLVGILFNIIFLFFLLWINQRNRSINLLLLISIYTIIAIIISTGTLYGLKKIDLRKVLATIFSVFLSYFITTITMKLLNDQGLRYEEMQFLTRPYRTVFLASLMLGGIGAALDNVVVIISSLDQLVRHTPEINTKELIESGKNIASDTTTSMINVLLFAYLSSATPFFIFYLANGWDFVETFKMHLSLEIMRILCGGLAILFTIPSSFLFFLLFKKIKKEGENR | failed
MHYAFSRIRLRSFFGWMIIGVFLIMIPLDLTNVSENTMEVISQITVFFVFPLLWLYVKTNKNNVVFNSFFDKPGRLSWGLIVLATIMGMIFSVGISQIQFYILAHTLPNFLVTMLEDGNVINTSNVYMTIFTFISACVLAPIMEEVIFRGFFLQRMAYKWGIKKAVIISSIIFGLGHFDVIGAFMFGVVMCLLYIKTKNIWTNIAVHALNNLIATSMQFFGGEESGTISITELQAQSNLWIGIGLTVVGLLWLIPYVWKQWRTVKEVGVPPVRFINEQKVVSSSQENEVYSQVILTDRLMAIELPDEAVNKLRLEENDYVTVSVEEDKIVIKKAHNR | failed
MEYYQPVEINVLSAQDLNSINLLFRPTVYVSVSVTRGSRDKQVTPAAAWDKKFLRWNYRMKFYIEDDKVRRNESVFVFQIKCKRFFGSDQVVGKLFIPGCRLGVWGNIRHEPSAPCEDDIYA | failed
MAASPSTYAFNGESKETGNDSSKLSKAPATKGGKPHIIFIMSDQHRGDALHCMGNKAVISPNIDKLAQEGSLFVCGYSSAPSSTPARAGLLTGMSPWHHGMLGYGKVASKYKYEMPQMLRDLGYYTFGIGKMHWFPQKALHGFHATLVDESGRSETRDFISDYREWFQLQAPGKNPDLTGIGWNNHNAGTYKLEERLHPTAWTGQTACELIRNYDSDQPLFLKVSFARPHSPYDPPKRYLDMYEKVDIPVPFVGDWCGKYAERKDPERVSKDAAFANLGEEYAVNSRRHYYANVTFIDDQIGQIIQTLKEKGMYENAIICYTADHGDMLGDHYHWRKTYAYEGSAKIPYIIKWPSAMTTQAIRGKRIEQPVELRDFLPTFIELAGGTVPDDMDGKSLVALASGNKNGWRKYIDLEHATCYSADNYWCALTDGKMKYIWFIHTGEEQLFDLSSDPGEQKNLSGNSRYADRLVEMRKAMVDHLQERGTEFVKDGKLAVRDQTLLYSPNYPKD | failed
AYSELQMLSPSERQCVETVVNMGYSYECVLRAMKKKGENIEQILDYLFAH | not failed
MTQAATILRTGRKFDQVLRGAREVFMSDGFEGANVDDIARAAGVSKATLYSYFPDKRLLFVEVAQTECQLMAERILSMIDEDRPVREVLTITATQLVAFLISDFAQQVFRICLAERERFPELARAFYAAGPENGQRQICEYLEKAVTKGELVIADIPMAAEQFSELCKTRLWTRAVFGIQTRFTQAEIDEVALAAVDTFLARYGA | failed
MLNQSNELNAWDRDHFFHPSTHMGTHARGESPTRIMAGGEGVTVWDNNGRKSIDAFAGLYCVNVGYGRQKIADAIATQAKNLAYYHAYVGHGTEASITLAKMIIDRAPKGMSRVYFGLSGSDANETNIKLIWYYNNVLGRPEKKKIISRWRGYHGSGVMTGSLTGLDLFHNAFDLPRAPVLHTEAPYYFRRTDRSMSEEQFSQHCADKLEEMILAEGPETIAAFIGEPILGTGGIVPPPAGYWEKIQAVLKKYDVLLVADEVVTGFGRLGTMFGSDHYGIKPDLITIAKGLTSAYAPLSGVIVADRVWQVLVQGSDKLGSLGHGWTYSAHPICVAAGVANLELIDEMDLVTNAGETGAYFRAELAKAVGGHKNVGEVRGDGMLAAVEFVADKDDRVFFDASQKIGPQVATALAASGVIGRAMPQGDILGFAPPLCLTREQADIVVSKTADAVKSVFANL | not failed
MDKLKVAELFAGVGGFRLGLENTKEKIFDVTWANQWEPSKKIQHAFDCYNSRFITGEHVNKDIALISDEEIANTKADMVVGGFPCQDYSVARSLSGELGIQGKKGVLFWQIIRFIQNTYPKYLLLENVDRLLKSPSSQRGRDFGVMLSTLNELGYNVEWRVINAADYGNAQRRRRVFIFGYKQDLNYADLIDKYSLEDIVYNSGMFAKAFPIEKEPNKNRVNSSTITNDIVDISNNFSFQFYNSGIMKNGEILTIDTIPIFEKPTPLKEIVLKEVDDKYSLADEKIEKFKYLRGPKKIKRTSKDGHEYYFSEGGMSEFDSLDLPARTMLTSEASVNRSSHFLSIGGKFRTLTPIEAERLNGFPDNWTDTMPDRMRYFCMGNALVVPLVTRIGNQIEKIEKITNDDFSQLKLF | failed
